B1: BTBD10 (parent)
chain: DRKLHSRPRKLYKHSSTSSRIAKG

Variants of: B1
Test: protein stability index of a GFP-peptide fusion (GPS, HEK-293T) (PSI 1-6); higher = more stable
Conditions: c terminus: a fixed tail appended
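Further: lentivirally expressed fusions sorted by FACS into six bins by GFP to DsRed ratio, PSI derived from sequencing read proportions per bin multiplied by bin number.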

Point of comparison: DRKLHSRTRKLYKHSSTSSRIAKG, protein stability index 3.31. Against it:
- DRILHSRPRKLYKHSSTSSRIAKG — higher, 3.47
- DRFLHSRPRKLYKHSSTSSRIAKG — lower, 3.24
- DRLLHSRPRKLYKHSSTSSRIAKG — higher, 3.77
- DRQLHSRPRKLYKHSSTSSRIAKG — higher, 3.87
- DRYLHSRPRKLYKHSSTSSRIAKG — higher, 3.37
- DRELHSRPRKLYKHSSTSSRIAKG — higher, 4.03
- DRHLHSRPRKLYKHSSTSSRIAKG — higher, 4.41
- DRPLHSRPRKLYKHSSTSSRIAKG — higher, 3.92
- DRWLHSRPRKLYKHSSTSSRIAKG — higher, 3.64
- DRRLHSRPRKLYKHSSTSSRIAKG — higher, 3.63
- DRNLHSRPRKLYKHSSTSSRIAKG — higher, 3.55
- DRSLHSRPRKLYKHSSTSSRIAKG — higher, 3.57
- DRTLHSRPRKLYKHSSTSSRIAKG — higher, 3.83
- DRDLHSRPRKLYKHSSTSSRIAKG — higher, 4.42
- DRCLHSRPRKLYKHSSTSSRIAKG — higher, 3.95
- DRVLHSRPRKLYKHSSTSSRIAKG — higher, 3.92
- DRMLHSRPRKLYKHSSTSSRIAKG — higher, 3.56
- DRALHSRPRKLYKHSSTSSRIAKG — higher, 4.52
- DRKLWSRPRKLYKHSSTSSRIAKG — lower, 3.16
- DRKLGSRPRKLYKHSSTSSRIAKG — lower, 2.82
- DRKLRSRPRKLYKHSSTSSRIAKG — higher, 3.9
- DRKLESRPRKLYKHSSTSSRIAKG — higher, 4.09
- DRKLSSRPRKLYKHSSTSSRIAKG — higher, 4.34
- DRKLYSRPRKLYKHSSTSSRIAKG — lower, 3.02
- DRKLKSRPRKLYKHSSTSSRIAKG — higher, 4.09
- DRKLASRPRKLYKHSSTSSRIAKG — higher, 4.22
- DRKLPSRPRKLYKHSSTSSRIAKG — higher, 4.5
- DRKLMSRPRKLYKHSSTSSRIAKG — higher, 3.43
- DRKLFSRPRKLYKHSSTSSRIAKG — higher, 4.43
- DRKLCSRPRKLYKHSSTSSRIAKG — higher, 3.9
- DRKLTSRPRKLYKHSSTSSRIAKG — higher, 4.17
- DRKLLSRPRKLYKHSSTSSRIAKG — higher, 3.72
- DRKLNSRPRKLYKHSSTSSRIAKG — higher, 5.44
- DRKLISRPRKLYKHSSTSSRIAKG — higher, 3.74
- DRKLVSRPRKLYKHSSTSSRIAKG — lower, 3.02
- DRKLQSRPRKLYKHSSTSSRIAKG — higher, 3.69
- DRKLDSRPRKLYKHSSTSSRIAKG — higher, 3.99
- DRKLHSRPRHLYKHSSTSSRIAKG — higher, 4.07
- DRKLHSRPRTLYKHSSTSSRIAKG — higher, 3.58
- DRKLHSRPRPLYKHSSTSSRIAKG — lower, 3.25
- DRKLHSRPRRLYKHSSTSSRIAKG — higher, 3.97
- DRKLHSRPRDLYKHSSTSSRIAKG — higher, 4.21
- DRKLHSRPRELYKHSSTSSRIAKG — lower, 2.8
- DRKLHSRPRILYKHSSTSSRIAKG — lower, 2.62
- DRKLHSRPRFLYKHSSTSSRIAKG — lower, 3.18
- DRKLHSRPRMLYKHSSTSSRIAKG — lower, 3.24
- DRKLHSRPRGLYKHSSTSSRIAKG — higher, 3.52
- DRKLHSRPRCLYKHSSTSSRIAKG — higher, 3.55
- DRKLHSRPRQLYKHSSTSSRIAKG — higher, 4.08
- DRKLHSRPRSLYKHSSTSSRIAKG — higher, 4.09
- DRKLHSRPRVLYKHSSTSSRIAKG — higher, 3.72
- DRKLHSRPRALYKHSSTSSRIAKG — higher, 3.67
- DRKLHSRPRYLYKHSSTSSRIAKG — higher, 3.94
- DRKLHSRPRNLYKHSSTSSRIAKG — higher, 4.07
- DRKLHSRPRLLYKHSSTSSRIAKG — higher, 3.77
- DRKLHSRPRWLYKHSSTSSRIAKG — higher, 3.33
- DHKLHSRPRKLYKHSSTSSRIAKG — higher, 4.46
- DNKLHSRPRKLYKHSSTSSRIAKG — higher, 3.96
- DLKLHSRPRKLYKHSSTSSRIAKG — lower, 2.7
- DYKLHSRPRKLYKHSSTSSRIAKG — lower, 3.16
- DPKLHSRPRKLYKHSSTSSRIAKG — higher, 4.02
- DAKLHSRPRKLYKHSSTSSRIAKG — higher, 3.42
- DEKLHSRPRKLYKHSSTSSRIAKG — higher, 4.39
- DVKLHSRPRKLYKHSSTSSRIAKG — higher, 3.65
- DSKLHSRPRKLYKHSSTSSRIAKG — higher, 4.14
- DQKLHSRPRKLYKHSSTSSRIAKG — higher, 4.19
- DMKLHSRPRKLYKHSSTSSRIAKG — higher, 3.89
- DDKLHSRPRKLYKHSSTSSRIAKG — higher, 4.04
- DWKLHSRPRKLYKHSSTSSRIAKG — higher, 3.68
- DFKLHSRPRKLYKHSSTSSRIAKG — lower, 2.65
- DKKLHSRPRKLYKHSSTSSRIAKG — higher, 3.83
- DGKLHSRPRKLYKHSSTSSRIAKG — higher, 3.95
- DCKLHSRPRKLYKHSSTSSRIAKG — higher, 3.62
- DTKLHSRPRKLYKHSSTSSRIAKG — higher, 4.09
- DIKLHSRPRKLYKHSSTSSRIAKG — lower, 2.66
- DRKGHSRPRKLYKHSSTSSRIAKG — higher, 3.72
- DRKNHSRPRKLYKHSSTSSRIAKG — higher, 3.77
- DRKYHSRPRKLYKHSSTSSRIAKG — higher, 3.8
- DRKQHSRPRKLYKHSSTSSRIAKG — higher, 4.08
- DRKIHSRPRKLYKHSSTSSRIAKG — higher, 3.62
- DRKDHSRPRKLYKHSSTSSRIAKG — higher, 4.49
- DRKHHSRPRKLYKHSSTSSRIAKG — higher, 4.09
- DRKWHSRPRKLYKHSSTSSRIAKG — higher, 3.5
- DRKRHSRPRKLYKHSSTSSRIAKG — higher, 3.9
- DRKKHSRPRKLYKHSSTSSRIAKG — higher, 4.28
- DRKEHSRPRKLYKHSSTSSRIAKG — higher, 4.28
- DRKTHSRPRKLYKHSSTSSRIAKG — higher, 4.3
- DRKFHSRPRKLYKHSSTSSRIAKG — higher, 3.92
- DRKPHSRPRKLYKHSSTSSRIAKG — higher, 4.11
- DRKAHSRPRKLYKHSSTSSRIAKG — higher, 4.42
- DRKVHSRPRKLYKHSSTSSRIAKG — higher, 3.71
- DRKSHSRPRKLYKHSSTSSRIAKG — higher, 4.71
- DRKMHSRPRKLYKHSSTSSRIAKG — higher, 4.23
- DRKCHSRPRKLYKHSSTSSRIAKG — higher, 3.9
- DRKLHNRPRKLYKHSSTSSRIAKG — higher, 4.04
- DRKLHGRPRKLYKHSSTSSRIAKG — higher, 3.48
- DRKLHLRPRKLYKHSSTSSRIAKG — lower, 2.4
- DRKLHMRPRKLYKHSSTSSRIAKG — higher, 3.46
- DRKLHIRPRKLYKHSSTSSRIAKG — higher, 3.58
- DRKLHTRPRKLYKHSSTSSRIAKG — higher, 3.76
- DRKLHFRPRKLYKHSSTSSRIAKG — lower, 3.18
- DRKLHCRPRKLYKHSSTSSRIAKG — higher, 3.43
- DRKLHQRPRKLYKHSSTSSRIAKG — higher, 3.89
- DRKLHRRPRKLYKHSSTSSRIAKG — higher, 3.39
- DRKLHARPRKLYKHSSTSSRIAKG — higher, 3.67
- DRKLHYRPRKLYKHSSTSSRIAKG — higher, 3.78
- DRKLHPRPRKLYKHSSTSSRIAKG — higher, 4.42
- DRKLHHRPRKLYKHSSTSSRIAKG — higher, 3.68
- DRKLHWRPRKLYKHSSTSSRIAKG — lower, 2.92
- DRKLHDRPRKLYKHSSTSSRIAKG — higher, 4.69
- DRKLHKRPRKLYKHSSTSSRIAKG — higher, 3.55
- DRKLHVRPRKLYKHSSTSSRIAKG — higher, 3.91
- DRKLHERPRKLYKHSSTSSRIAKG — higher, 4.41
- NRKLHSRPRKLYKHSSTSSRIAKG — higher, 4
- VRKLHSRPRKLYKHSSTSSRIAKG — higher, 3.93
- YRKLHSRPRKLYKHSSTSSRIAKG — lower, 3.03
- PRKLHSRPRKLYKHSSTSSRIAKG — higher, 3.42
- QRKLHSRPRKLYKHSSTSSRIAKG — higher, 3.81
- MRKLHSRPRKLYKHSSTSSRIAKG — higher, 3.8
- SRKLHSRPRKLYKHSSTSSRIAKG — higher, 3.89
- RRKLHSRPRKLYKHSSTSSRIAKG — lower, 3.05
- TRKLHSRPRKLYKHSSTSSRIAKG — lower, 3.16
- WRKLHSRPRKLYKHSSTSSRIAKG — lower, 2.8
- DRKLHSRPRKCYKHSSTSSRIAKG — lower, 2.99
- DRKLHSRPRKFYKHSSTSSRIAKG — higher, 4.91
- DRKLHSRPRKDYKHSSTSSRIAKG — higher, 3.71
- DRKLHSRPRKAYKHSSTSSRIAKG — higher, 4.08
- DRKLHSRPRKHYKHSSTSSRIAKG — higher, 3.93
- DRKLHSRPRKEYKHSSTSSRIAKG — higher, 4.49
- DRKLHSRPRKGYKHSSTSSRIAKG — higher, 4.16
- DRKLHSRPRKIYKHSSTSSRIAKG — higher, 3.61
- DRKLHSRPTKLYKHSSTSSRIAKG — higher, 3.84
- DRKLHSRPEKLYKHSSTSSRIAKG — higher, 4.19
- DRKLHSRPFKLYKHSSTSSRIAKG — lower, 3.27
- DRKLHSRPIKLYKHSSTSSRIAKG — lower, 3.02
- DRKLHSRPGKLYKHSSTSSRIAKG — higher, 4.3
- DRKLHSRPLKLYKHSSTSSRIAKG — higher, 3.85
- DRKLHSRPHKLYKHSSTSSRIAKG — higher, 3.7
- DRKLHSRPYKLYKHSSTSSRIAKG — higher, 3.64
- DRKLHSRPKKLYKHSSTSSRIAKG — higher, 4.17
- DRKLHSRPPKLYKHSSTSSRIAKG — higher, 3.69
- DRKLHSRPVKLYKHSSTSSRIAKG — higher, 3.82
- DRKLHSRPCKLYKHSSTSSRIAKG — higher, 3.74
- DRKLHSRPSKLYKHSSTSSRIAKG — higher, 4.47
- DRKLHSRPWKLYKHSSTSSRIAKG — higher, 3.51
- DRKLHSRPDKLYKHSSTSSRIAKG — higher, 4.01
- DRKLHSRPMKLYKHSSTSSRIAKG — higher, 3.74
- DRKLHSRPQKLYKHSSTSSRIAKG — higher, 4.11
- DRKLHSRPAKLYKHSSTSSRIAKG — higher, 4.1
- DRKLHSRPNKLYKHSSTSSRIAKG — higher, 4.13
- DRKLHSRIRKLYKHSSTSSRIAKG — higher, 3.65
- DRKLHSRARKLYKHSSTSSRIAKG — higher, 4.2
- DRKLHSRERKLYKHSSTSSRIAKG — higher, 4.08
- DRKLHSRGRKLYKHSSTSSRIAKG — higher, 3.68
- DRKLHSRCRKLYKHSSTSSRIAKG — higher, 4.03
- DRKLHSRVRKLYKHSSTSSRIAKG — lower, 3.05
- DRKLHSRHRKLYKHSSTSSRIAKG — higher, 4.12
- DRKLHSRLRKLYKHSSTSSRIAKG — lower, 2.76
- DRKLHSRWRKLYKHSSTSSRIAKG — higher, 3.95
- DRKLHSRMRKLYKHSSTSSRIAKG — lower, 3.02
- DRKLHSRDRKLYKHSSTSSRIAKG — higher, 4.51
- DRKLHSRKRKLYKHSSTSSRIAKG — higher, 3.67
- DRKLHSRSRKLYKHSSTSSRIAKG — higher, 3.5
- DRKLHSRQRKLYKHSSTSSRIAKG — higher, 4.24
- DRKLHSRNRKLYKHSSTSSRIAKG — higher, 3.81
- DRKLHSRFRKLYKHSSTSSRIAKG — lower, 2.21
- DRKLHSRYRKLYKHSSTSSRIAKG — lower, 2.82
- DRKLHSRRRKLYKHSSTSSRIAKG — lower, 3.18
- DRKLHSLPRKLYKHSSTSSRIAKG — lower, 2.84
- DRKLHSVPRKLYKHSSTSSRIAKG — lower, 3.28
- DRKLHSMPRKLYKHSSTSSRIAKG — higher, 3.84
- DRKLHSKPRKLYKHSSTSSRIAKG — higher, 3.33
- DRKLHSIPRKLYKHSSTSSRIAKG — the same, 3.31
- DRKLHSEPRKLYKHSSTSSRIAKG — higher, 4.41
- DRKLHSQPRKLYKHSSTSSRIAKG — higher, 4.4
- DRKLHSCPRKLYKHSSTSSRIAKG — higher, 3.76
- DRKLHSNPRKLYKHSSTSSRIAKG — higher, 4.1
- DRKLHSHPRKLYKHSSTSSRIAKG — higher, 3.79
- DRKLHSSPRKLYKHSSTSSRIAKG — higher, 4.21
- DRKLHSGPRKLYKHSSTSSRIAKG — higher, 4.33
- DRKLHSPPRKLYKHSSTSSRIAKG — higher, 4.33
- DRKLHSFPRKLYKHSSTSSRIAKG — lower, 2.59
- DRKLHSWPRKLYKHSSTSSRIAKG — lower, 2.97
- DRKLHSAPRKLYKHSSTSSRIAKG — higher, 3.98
- DRKLHSYPRKLYKHSSTSSRIAKG — higher, 3.83
- DRKLHSDPRKLYKHSSTSSRIAKG — higher, 4.54
- DRKLHSTPRKLYKHSSTSSRIAKG — higher, 4.31
